Assay [1] concerns the target T1, human GIPR (hGIPR), full length (human, UniProt P48546 22-466).
T1 sequence: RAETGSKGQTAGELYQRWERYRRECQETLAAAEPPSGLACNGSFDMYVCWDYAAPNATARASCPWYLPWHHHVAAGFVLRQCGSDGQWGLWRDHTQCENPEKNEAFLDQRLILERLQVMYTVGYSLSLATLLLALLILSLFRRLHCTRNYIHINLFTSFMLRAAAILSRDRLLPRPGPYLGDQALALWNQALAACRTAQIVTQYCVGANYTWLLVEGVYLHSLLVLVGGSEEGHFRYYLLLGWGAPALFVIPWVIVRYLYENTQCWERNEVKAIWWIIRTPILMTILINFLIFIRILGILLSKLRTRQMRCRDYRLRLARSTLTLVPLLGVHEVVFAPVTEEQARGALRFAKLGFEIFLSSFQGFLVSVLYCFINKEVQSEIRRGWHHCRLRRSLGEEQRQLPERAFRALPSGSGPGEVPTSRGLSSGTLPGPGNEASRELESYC
The assay can be described thus: cell-based or functional assay.

In assay [2] the target is T2, Human GIPR ECD (GIPR extra cellular domain) (human).
T2 construct: The published benchmark structures (6dkj, 4hj0) used their own ECD constructs
T2 chain: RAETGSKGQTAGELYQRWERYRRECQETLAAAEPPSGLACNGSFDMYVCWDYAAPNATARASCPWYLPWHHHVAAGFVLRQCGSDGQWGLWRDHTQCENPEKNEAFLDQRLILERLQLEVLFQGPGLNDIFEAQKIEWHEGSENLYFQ
The assay can be described thus: SPR (Biacore 8K, 37 C); antibody captured on anti-human IgG, human GIPR ECD as analyte; 1:1 model. On the technique in general: In SPR one partner is held on a chip, and binding of the other changes the refractive index at the surface.

A further assay has as its target human GLP1R (human, UniProt P43220 24-463). Nature of the assay: cell-based or functional assay.

Square brackets hold non-standard residues; d marks the D form. Ends that are not written are not given here. * marks the point of attachment. Aib = CC(C)(N)C(=O)O; BrAc = O=C(CBr)*

The values that follow come from patent US20250163168A1 (Pfizer, published 2025).

human GLP1R, sequence (P43220 24-463): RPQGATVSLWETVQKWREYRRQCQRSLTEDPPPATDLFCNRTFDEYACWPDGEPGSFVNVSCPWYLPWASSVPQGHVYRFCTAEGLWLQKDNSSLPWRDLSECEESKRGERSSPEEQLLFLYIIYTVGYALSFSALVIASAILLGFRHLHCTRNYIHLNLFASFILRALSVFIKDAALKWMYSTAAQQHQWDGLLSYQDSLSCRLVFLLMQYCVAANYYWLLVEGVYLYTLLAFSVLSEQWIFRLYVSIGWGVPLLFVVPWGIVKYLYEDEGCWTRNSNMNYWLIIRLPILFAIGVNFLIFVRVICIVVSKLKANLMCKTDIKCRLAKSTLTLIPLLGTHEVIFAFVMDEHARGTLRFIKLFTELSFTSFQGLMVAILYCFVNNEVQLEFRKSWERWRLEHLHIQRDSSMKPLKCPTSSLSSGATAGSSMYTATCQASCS

B1: anti-GIPR antibody GIPR-2767 (antibody, human IgG1, kappa)
heavy: EVQLVESGGGLVKPGGSLRLSCAASGFPFSSAWMSWVRQAPGKGLEWVGRIKSKADAGTTDYGAPVKGRFTISRDDSKNTLYLQMNSLKTEDTAVYYCTTEDIVGVPFKGYYQYMDAWGKGTTVTVSSASTKGPSVFPLAPSSKSTSGGTAALGCLVKDYFPEPVTVSWNSGALTSGVHTFPAVLQSSGLYSLSSVVTVPSSSLGTQTYICNVNHKPSNTKVDKKVEPKSCDKTHTCPPCPAPEAAGAPSVFLFPPKPKDTLMISRTPEVTCVVVDVSHEDPEVKFNWYVDGVEVHNAKTKPREEQYNSTYRVVSVLTVLHQDWLNGKEYKCKVSNKALPAPIEKTISKAKGQPREPQVYTLPPSREEMTKNQVSLTCLVKGFYPSDIAVEWESNGQPENNYKTTPPVLDSDGSFFLYSKLTVDKSRWQQGNVFSCSVMHEALHNHYTQKSLSLSPGK
light: not shown
notes: also called GIPR-27676; GIPR-2676
One may read the Kd as the constant that tells how readily two partners part at equilibrium. High values mean weaker binding, low ones tighter binding. One may read the koff as a measure of how fast the partners let go of each other. A lower koff goes with a long-lived complex. Usually kon stands for the rate constant with which the complex forms. Lower therefore signals slow association. In the case of B1, the “Human GIPR-CHO cAMP Antagonist Activity IC50” value in assay [1] is 28 nM. In assay [2], this molecule gave a dissociation constant Kd of 1.91 nM, an off-rate (koff) of 0.0013 s⁻¹ and a kon of 684000 M⁻¹ s⁻¹.

As for H-H[Aib]EGTFTSDVSSYLE[Aib]QAAKEFIAWLVKGRGGGGGSGGGGSGGGGSK(BrAc) (not fully specified (C-terminus)) [SEQ ID NO 150: GLP1(7-37) [Aib8; Aib22] with GGGGS(x3)-K(BrAc) linker], the “cAMP assay, GLP1R agonist mode, Emax (%)” value with human GLP1R came out at 104%.

As for H[Aib]EGTFTSDYSSYLEEQAAKEFIAWLVKGRGGGGGSGGGGSGGGGSK(BrAc) (not fully specified (C-terminus)) [SEQ ID NO 151: GLP1(7-37) [Aib8; Tyr16; Glu22] with GGGGS(x3)-K(BrAc) linker], in the assay with human GLP1R, the “cAMP assay, GLP1R agonist mode, EC50 (pM)” value (“cAMP assay … (pM)” for short) is 3.5 pM and the “cAMP assay, GLP1R agonist mode, Emax (%)” value came to 109%.

As to H-H[Aib]EGTFTSDVSSYLEEQAAKEFIAWLVKGGGGGGGSGGGGSGGGGSK(BrAc) (not fully specified (C-terminus)) [SEQ ID NO 153 (Benchmark): GLP1(7-37) [Aib8; Glu22; Gly36] with GGGGS(x3)-K(BrAc) linker], in the assay with human GLP1R, the “cAMP assay … (pM)” value was 15 pM and the “cAMP assay, GLP1R agonist mode, Emax (%)” value is 109%.

On to H-H[Aib]EGTFTSDYSSYLE[Aib]QAAKEFIAWLVKGRGGGGGSGGGGSGGGGSK(BrAc) (not fully specified (C-terminus)) [SEQ ID NO 152: GLP1(7-37) [Aib8; Tyr16; Aib22] with GGGGS(x3)-K(BrAc) linker], for which, in the assay with human GLP1R, the “cAMP assay … (pM)” value was 2.1 pM and the “cAMP assay, GLP1R agonist mode, Emax (%)” value is 107%.
